Results on 1 substance are retold here after patent US20070212365A1.

Assay [1] has as its target synthetic peptide … (antigen from mpf00920 polypeptide). The assay can be described thus: ELISA on the antigen; pre-immune serum at 1000-fold dilution. Background: In an ELISA, binding on a coated surface is turned into a signal by an enzyme label.
Assay [2] shares this target. As to the kind of experiment: ELISA on the antigen; pre-immune serum at 2000-fold dilution.
Assay [3] shares this target. The assay can be described thus: ELISA on the antigen; pre-immune serum at 4000-fold dilution.
The target is the same in assay [4]. As to the kind of experiment: ELISA on the antigen; pre-immune serum at 8000-fold dilution.
For assay [5] the target is unchanged. As to the kind of experiment: ELISA on the antigen; pre-immune serum at 16000-fold dilution.

Turning to “control serum (rabbit serum without immunization)”, the absorbance (490 nm) (absorbance (490 nm)) is 0.171 in assay [1]; 0.101 in assay [2]; 0.089 in assay [3]; 0.084 in assay [4]; 0.076 in assay [5].
